Test: soluble on expression in E. coli; label from the status in PepcDB or PDB records

Row | Sequence | soluble on expression in E. coli
1 | MMGYNFNEKPLLIFWETTKACGLKCEHCRASAILEALPDEMNYDESIDFLSHIKEFGKPYPIVILTGGDMLRKRRINDIMKYLKDAEIPFSVSPAVTEMLTDERIKSFLEFGVSSVSISLDGMKDVHEKVRGVPGVFDDTVRVVEKLIKEGIPMQINTVVMRSTVNDLPKVLKLILDKSVKVWEVFFLIKTGRGIDREDLSPEEYEDVNKYLLYATGYGIRIRTVESPIFRRITLQSGSTGRIEGGPLYQKLVSETEKIIGKKPSAIAKSVIPTRDGYGIIFVGHNGDVYPSGFLPYKVGNVKNQSIVDIYRKSELLRKIRDPDNLVGKCGFCEYRSVCGGSRARAFAYSSDPFGTDPSCSYMPKSVVSA | not soluble
2 | MATSFRYGHGGSYKSACAVWFDLLPALREGRICITNIHGMQPLEVIEQRLGEKFPDTARLIRISSRNPEGFELWKYFFCWAPIGAFILIDECQQIFSVNAGFKMANIHKRPFTDFEPHLPEGFSELFHSRWLTIDTSSLDNGEIDDCQRTRFDEQGRIIYPENFNNAFMEHRHYNWDIVLLTPDFAQIPKELKGVAELAKQHKGKDGIFFSNRKPRILEHDPTRTVTKPSKDDVVYNLKVPLDVHLLYASTVTGQ | not soluble
3 | EDFAKSIQDFIENGKTLEDFRKDFDKIVAKHGWQYNGGRNWRSRIIYETNLRSSYQAGRYAQLQELKETMPYWEYVHNDAVTYPRVEHMHWDGLILRHDDPWWKTHFPINAWGCQCTVI | not soluble
4 | MGSDKIHHHHHHMSTDTDDDSGSHGCKAPDSDGEVAENIAIVAFERKMDTAEDIVDGIGDRYESIDILEYHGDVFEEYWGEYDCFIGLMASGIAMRKTAHLLDDKWDDPAICVVDEELTWAIPITGGHHGANQVADDLASMGAVPAMTTASEAADKQGVEKQAKALDAHVVNGDSTVATNLAVLDDELGPIERLDGPKAVLVDDDVTVLKRNKDDGIVLGCGSVAGADVEQFHAAWEQALDEADLDRDDVEFVATGTRKADEEGMLAAAEEWGLGVIAFEKETLEGFEGPTPSRSKELIGWPGIAEASAIAAGSEHDLLAEKTRYDEAVTVAIGR | not soluble
5 | MSLFSDVAETSSFVFAVAGADDEVVLETIRLALKQKLGKFLLFGKKEDKTLTANESVTWIQTDTAEAAAQGAILAVKNKEADILVKGFIPTATLMHHVLKKENGLRTDQLLSQIAIFDIPTYHKPLLITDCAMNVAPKTKEKIAITENALAVAHQIGITNPKIALLSAVEEVTAKMPSTLEAQEVVQHFGNQISVSGPLALDVAISKEAALHKGITDSSAGEADILIAPNIETGNALYKSLVYFAGAKVGSAVVGAKVPIVISSRNDSPENKLASFILTVRLVEKEGHHHHHH | soluble
6 | MGSDKIHHHHHHDFLDRHPQGQFTEDDNPGALAEGKVFNIYTMMRNYNITAGIPAFAIEYFRSEDSEKGSTASDGADQAAMYDDFQYNASNGLIKAYWSQNYAVIYQCNDVIETIEKGNLTEENDLRNKGEALFFRAYCYFNLVRAFGEVPLVTFKVNDASEANVPKTTAEEIYKQIDSDLTQAEGLLPRQWQSAYLGRLTWGSARALHARTYMMRNDWQNMYTAATDVMNSGQYNLNTPYDVIFTDEGENSSESVFELQCASTAALPASDKIGSQFCEVQGVRGSGQWDLGWGWHMGTELMGEAFEPGDPRKDATLLYFRRSDTDPITPENTNKPYGESPVSQADGTYFNKKAYTNPALREEFTRHGFWVNIRIIRYGDVVLMAAESANELGKTGEASNYLEMVRARARGNNPDILPKVTSLDQTVLRDAIRHERRVELGLESGRFYDLVRWGIASQVLHAAGKTGYQPKNALLPLPQDEIDKSKGVLVQNPDY | not soluble
7 | MGSDKIHHHHHHMAMDRVTKQLTVSKLLSLANFIPKDSQKILFYSTPDVSDNALALFKYISEKTDDYELAWLLNNPNSPSVKTLKEKYPEVKTIYLYSLEGLKELLRSKFVVLTDVLPLTPHRGQKIIQLWHGLPGKKTGYEHPLNVKDLYLYMDKWTTDFVTTSELVVGAFVRQFMINPRKFRILGQPRNDGLFDNLKDAKNILSSILGRDVEDYDHLILYAPTYRYTSYMKDFQASVNVVKTLFHHKFLEFLKEENILLVIKPHKLVADVIKPEIKENSNVILLTDEHLQSRLITINDVMGAFDILITDYSSIFEDYILLERPILFYLPDREALERKSGFLLPYEFFAPGRKPETLEGLIHALKIYMEDPEVDSEWRKTVKNLLYEVGKDNKSSERIYNLIIKQK | not soluble
8 | MRVYVGVDTGGTFTDFVYWDGKEWRVLKIPSTPSNPAEAVLKGLEKLRRGKALDVVHGSTVATNALLERKGAKTALITNKGFEDVIEIGRQNRERLYDLYYRKPKPLVPRELRFGLNCRINAKGEVLKPINREELKEILKALKEKGVESVAVCMLHSYANPEHEKEVEEELKKNLSVFVSLSSEILPEFREYERCSTTVINAYVSPKMSKYLYYLKDRLREGDLFRVMQSNGGLISPETASKEAVRTILSGPAGGVIGALHLGKLAGFEKLITFDMGGTSTDVSLIYGTPNITTESKIDGLPVKVPMIDINTVGAGGGSIAYVDEGGALRVGPQSAGAQPGPICYGRGGKEITVTDANLFLGRLVPEHFLGGEMKLYPELLEEPFKEMAKKIGLAPTELAEGIIKVANSSMERAIRKVSVERGYNPEEFALFSFGGAGGLHAVLLAKSLNIPKVIIPRNPGLLSAVGMLFADIVKDKVTTVMLKEEEAKPETLEKLFLLMEEKVLSEMEGEGFPPEKVFVERFLDVRYKGQSYEITIPFGENFKETFEKEHERLYGYAHRGRKIEIVNLRIKATGIKEKPPLKEFKERGDKYPKDAILGEREVVFEGRLETFKVLDREKLVYGNVIDFPAIVVEYSSTTLIPPYATAEVDRYGNLIITLL | not soluble
9 | MAHHHHHHMNYNNNSFIPPTHVVKNIYTSAKTKFFLIKSSSDKNIAISLNYNIWATTPKNEYKFVSAFMEHDYVILVFSVNGSSKFCGYAIMQSKPGESKNNNVYFYYDNKVFRGKNFDIQWIRVVDVPFQEVAHLKNSLNEYKPIKVGRDGQEIEQMAGIQLCEAFESNFIKINNNITDTNTKPNIPPMYNMNTNNYVDSPNMNENIDMIKLYPYNNNFNINYNNFRNLYEESQYNLFNFYNPALHIFPIDLTNMNYDEYIYLYEKSQLVWQQKMLQMKANMNCIKQ | not soluble
10 | MGSDKIHHHHHHMKIIDGNIASPLGFSADGLHAGFKKRKKDFGWIVSEVPASVAGVYTTNKVIAAPLIVTRESVKKAQKMQALVVNSGVANSCTGLQGMEDAYTMQKWTATKLKIAPELVGVASTGVIGDLMPMDTLQKGLSKLVVNGNSDDFAQAILTTDTKVKTVAVTEQFGRDEVTMAGVAKGSGMIHPNMATMLAFITCDAVISSETLQLALSQNVETTFNQITVDGDTSTNDMVLVLSNGCTLNKEILPDTPEFDKFSAMLHFVMQELAKKIAKDGEGATKLIEVEVINAPNSLDACMMAKSVVGSSLVKTAIFGEDPNWGRILAAVGYAGVDVPVDNIDIYLADIPVMLASSPVDFDEEDMQDVMRADTIKIIVDLHAGDSVGKAWGCDLSYDYVKINALYRT | not soluble
11 | MSLTGREKNPSLTAKELEGGLLIVDEMSMVDTWLANTLLKAIPTNMQVIFVGDKDQLPSVGPGQVLHDLLQINEIPKCELNEIYRQGDGSSIIPLAHEIKEGKLPADFQKNQKDRSFFASDIGHIEEYIRQIVTKAKAKGFTPQDIQVLAPMYRGAAGIDALNKMMQEIFNPNDGKKKEVKWNDTVYRIGDKVLQLVNTPELNVFNGDMGEIVGITLAKDSEDKVDELVLQFDNNEVTYKRNEWNKITLSYCCSIHKAQGSEFRMVLLPMVHQYSRMLQRNLLYTAVTRSKELLILLGEVSAFETCVKNESASRMTMLKERIVNAEQEGHHHHHH | not soluble
12 | MSLSSNRGVVYIGPGKVEVQDIADPKLEAPDRRKIAHGVILKVVSTNICGSDQHMVRGRTTAEPGLILGHEITGEVIEKGADVEMLEIGDIVSVPFNVACGRCRCCREGDTGVCLTVNPSRAGGAYGYVDMGGWIGGQARYVMVPYADFNLLKFPDRDRAMAKIRDLTMLSDILPTGFHGAWKAGVGVGSVVYVAGAGPVGLAAAASARILGAAVVMVGDFNKERLEHARKVGFEPVDLSKGDDLPEMIAQITGTPEVDAAIDAVGFEARGHSGGEQPAIVLNQMMQITRAAGQIGIPGLYVTEDPGAVDDAARHGSLSMRFGLGWAKAQSFHTGQTPVLKYNRQLMQAILHDRLPIADIVNATVIPLDQAVQGYESFDRGVAKKFVLDPHGMLAAEGHHHHHH | not soluble
13 | MIEENLKQKIHDKFVAAKKNGHLKVTHAESKKLKDPQTTTQYWVTFAPSLALKPDANKNSDSKAEDPFANPDEELVVTEDLNGDGEYKLLLNKFPVVPEHSLLVTSEFKDQRSALTPSDLMTAYNVLCSLQGDKDDDVTCERYLVFYNCGPHSGSSQDHKHLQIMQMPEKFIPFQDVLCNGKDHFLPTFNAEPLQDDKVSFAHFVLPLPESSDQVDEDLLAMCYVSLMQRALTFFQDWTNESPELTKSYNVLLTKKWICVVPRSHAKSGPPLMLNINSTGYCGMILVKDREKLENLTEDPHLVDKSLLQCGFPNTAGQKPTEYHY | not soluble
14 | SKHSNKPYDSFQDELEDYIKVQKARGLEPKTCFRRMRGEYLESCGYREEFDSRPRYRMFDQRLPSGTNHSYPRSCSSSQTEDRVPQWLPAHDKIRLNSLSYCQFTRDGFSEKPVPLNLSQQEYNCGSYSVESVVHKRLCSEHSTIDPQVSHRQMHQKRKKHVEEGREKQEERPKHERKRSSEEMDLNKHRSIQRKKTKAETETVQDGTEKLKNRKEKKTRDVSSKKEDRKRRKEKKEQGEERTEEEMLWDQSILGF | soluble
15 | DCEKEGEVQWFALPVVLVSGCKKERAIEMKLPTEALFACLQNYPHLRALTQETQWLPYLVHSSDLSAVAPDEWWRAKQNTEAAAQHLRRFAPRPLLLPEGQSVHVVYALGFGSGKVQTALGQNLLQAGLPLMQVWQENLASEGVTLFANPLSPDSPVRALSDGSHTRQRMAMDVFAANAIRAVRMQSPR | not soluble
16 | MSLSKKSILLLCCSLCFISATKAVTPVRNVRNSQVNSKAKTERTKPSDSVRYISNMIADRLEFRNKISSEKEVRKAEYENRLAMEALNYPAIDLYGEDSWSEYVNPFVGAGTDVEIPNSYDIDCSSFVMPVEDKQVTSQFGYRRRFGRMHYGIDLSVNRGDTIRAAFDGKVRVRSYEARGYGYYIVLRHPNGLETVYGHMSRQLVDENQIVRAGQPIGLGGSTGRSTGPHLHFETRFMGIPINPSTIIDFDNGVPLRDIYTFKRGSNSRYAKASKTSSRYAKKGKKGRQASSPMTYRIKKGDTLETIAKRHGTSVQKLCATNGIGKSKILTPGKALRIKEGHHHHHH | soluble
17 | MLETRATTAKQLVQAPEQPAPQPEVAPPTTEQPAPAPAPGTTPGTENFNTPNATPETTEPRVLVSEVLVRPQSGQLTPELETQVYNVIRTQPGRTTTRSQLQEDINAIFGTGFFSNVQASPEDTPLGVRVSFIVQPNPVLSKVEIQANPGTNVPSVLPQATADEIFRAQYGKILNLRDLQEGIKELTKRYQDQGYVLANVVGAPQVSENGVVTLQVAEGVVENISVRFRNKEGQDVNEQGQPIRGRTQDYIITREVELKPGQVFNRNTVQKDLQRVFGTGLFEDVNVSLDPGTDPTKVNVVVNVVERSLEHHHHHH | soluble
18 | GSHMKVDITIKIQRDGQEIEIDIRVSTGKELERALQELEKALARAGARNVQITISAENDEQAKELLELIARLLQKLGYKDINVRVNGTEVKIEVRV | soluble
19 | MRNFDLSPLYRSAIGFDRLFNHLENNQSQSNGGYPPYNVELVDENHYRIAIAVAGFAESELEITAQDNLLVVKGAHADEQKERTYLYQGIAERNFERKFQLAENIHVRGANLVNGLLYIDLERVIPEAKKPRRIEINLEHHHHHH | soluble
